Experimental data as given in patent US12674167B2, “Aptamer specifically binding to cancer stem cells, and use thereof” (HiCELL Tech, priority 2019, dated 2026).
[NapdU] = 5-(N-naphthylcarboxyamide)-2'-deoxyuridine

B1: AT4: 76-mer CD166 aptamer, N = NapdU: TCAGCCGCCAGCCAGTTCCNNCNAGAGNCANGCACGNNANCGGACCNGNCGGCGAANGGACCANANCACCACAGAG (nucleic acid)
DNA: TCAGCCGCCAGCCAGTTCCUUCUAGAGUCAUGCACGUUAUCGGACCUGUCGGCGAAUGGACCAUAUCACCACAGAG
modifications: DNA, [NapdU] at 20, 21, 23, 28, 31, 37, 38, 40, 47, 49, 57, 64, 66, backbone not given here
B2: AT5: 76-mer CD166 aptamer, N = NapdU: TCAGCCGCCAGCCAGTTCANNNGANAAAGCNCCGNNANCGGGCCCCNNGNAGAGNCANGACCAGAGCACCACAGAG (nucleic acid)
DNA: TCAGCCGCCAGCCAGTTCAUUUGAUAAAGCUCCGUUAUCGGGCCCCUUGUAGAGUCAUGACCAGAGCACCACAGAG
modifications: DNA, [NapdU] at 20, 21, 22, 25, 31, 35, 36, 38, 47, 48, 50, 55, 58, backbone not given here

What was measured:
[1] = system: ovarian cancer stem cell line A2780-SP cells; assay: Affinity of CD166 aptamer to ovarian cancer stem cells by flow cytometry (FACS); assay type: binding; conditions: for affinity: as found in Example 8 (FACS)
Procedure: It was confirmed whether the CD166 aptamer constructed in Example 7 recognized ovarian cancer cells and ovarian cancer stem cells. The following experiment was performed to analyze the interaction between the CD166 aptamer and the ovarian cancer cell line A2780 cells. First, each of the CD166 aptamer (AT-1, AT-2, AT-3, AT-4, AT-5 and AT-6) was dissolved in sterile tertiary water and then heated at 95° C. for 5 minutes. After heating, it was cooled to 25° C. The aptamer was added to the ovarian cancer cell line A2780 cells at a concentration of 500 nM, and then the cells were cultured at room temperature and stained. Thereafter, the cells reacted with the CD166 aptamer were analyzed using a flow cytometer (fluorescence activated cell sorter, FACS), and the results are shown in FIG. 18.
In addition, in the same manner as described above, the ovarian cancer stem cell line A2780-SP cells were reacted with the CD166 aptamer, and then FACS was performed, and the results are shown in FIG. 19.
The affinity of the CD166 aptamer AT-5 and the CD166 FACS antibody (PE Mouse Anti-Human CD166, Cat:559263, BD Pharminggen) as the control to the ovarian cancer stem cell line A2780-SP cells was compared.

[2] = system: CD166 expressing cells isolated from ovarian cancer stem cells; assay: Cell adhesion experiment, CD166 expressing ovarian cancer stem cells; assay type: cell-based; conditions: aptamer 500 nM, 1 hour, collagen-coated plate, FIG. 21
Procedure: The effect of the CD166 aptamer on cell adhesion ability was confirmed using the CD166 aptamers AT3, AT4 and AT5. Specifically, CD166 expressing cells were isolated from ovarian cancer stem cells using the CD166 FACS antibody. Cell adhesion experiment of the CD166 aptamer was performed using the isolated cells. First, […] blocked with 20 μg/ml of collagen for 1 hour. After blocking, 0.1% bovine serum albumin (BSA) was added and incubated for 1 hour to limit non-specific binding. The isolated cells were each exposed to the CD166 aptamer (500 nM) for 1 hour and then fixed with 4% formaldehyde. The fixed cells were stained with hoest33342.

[3] = system: patient-derived ovarian cancer stem cells; assay: Affinity of CD166 aptamer to patient-derived ovarian cancer stem cells (FACS); assay type: binding; conditions: FIG. 36A
[4] = system: CD166-high cells of ovarian cancer stem cell line A2780-SP; assay: Tumor formation from aptamer-treated A2780-SP cells inoculated subcutaneously; assay type: in vivo, nude mice
Procedure: The effect of the CD166 aptamer AT-5 on tumor formation was confirmed. Specifically, cells in which the expression CD166 is high were isolated from the ovarian cancer stem cell line A2780-SP using a flow cytometer (ARIA3). The isolated cells were reacted with the CD166 aptamer AT-5 for 1 hour, respectively. The cells reacted with the aptamer (1×10^5 cells) were inoculated subcutaneously into nude mice. At this time, the aptamer-untreated cells were inoculated on the left side of nude mice, and the CD166 aptamer AT-5-treated cells were inoculated on the right side of nude mice. After inoculation, the tumor formation size was measured from the 18th day. Nude mice were euthanized on the 38th day of inoculation. Tumors were isolated from nude mice, and finally, the weight and size of the tumors were measured. The results of observation of the isolated tumors are shown in FIG. 26, the results of measuring the size of the tumors are shown in FIG. 27, and the results of measuring the weight of the tumors are shown in FIG. 28, respectively.

[5] = system: focal adhesion signaling pathway in mesenchymal stem cells; assay: Focal adhesion signaling pathway by Western blotting, mesenchymal stem cells; assay type: cell-based; conditions: aptamer 1 hour, normal stem cells, FIG. 44
Excerpt: (§1) CD166 expression was inhibited using siRNA in the ovarian cancer stem cell line A2780-SP, and the focal adhesion signaling pathway was confirmed in CD166 expression-inhibited cells through Western blotting. Specifically, in order to inhibit the expression of CD166, the control (si Control) (5′-UUCUCCGAACGUGUCACGUTT-3′ (SEQ ID NO: 23); 5′-ACGUGACACGUUCGGAGAATT-3′ (SEQ ID NO: 24) and si CD166 (5′-AAGCCCGAUGGCUCCCCAGUAUU-3′ (SEQ ID NO: 25); 5′-AAUACUGGGGAGCCAUCGGGCUU-3′ (SEQ ID NO: 26) were constructed. The expression of CD166 was inhibited by reacting the constructed siRNA and the ovarian cancer stem cell line A2780-SP cells, and the cells were cultured after inhibition of expression. After culturing for 48 hours, the cells were collected, and protein expression of FAK, SRC, Paxillin and CD44, which are known as major genes of the focal adhesion signaling pathway, was confirmed through Western blotting. Antibodies against CD166 (ab109215, Abcam), CD44 (5640S, Cell Signaling Technology), p-PAXILLIN (2541S, Cell Signaling Technology), p-SRC (2101S, Cell Signaling Technology), p-FAK (3284S, Cell Signaling Technology), FAK (3285S, Cell Signaling Technology) and GAPDH (MAB374, EMD Milliore Corp, Billerica, MA) were used as primary antibodies. The results of confirming the focal adhesion signaling pathway inhibitory activity in CD166 expression-inhibited cells are shown in FIG. 14.
The mesenchymal stem cells were reacted with the CD166 aptamer AT-5 for 1 hour, respectively, and then the focal adhesion signaling pathway was confirmed in CD166 expression-inhibited cells through Western blotting. The Western blotting was performed in the same manner as in Example 5. In addition, the focal adhesion signaling pathway by CD166 expression inhibition in the mesenchymal stem cells was confirmed by the method of Example 4, and the results are shown in FIG. 44.

[6] = system: focal adhesion signaling pathway in patient-derived ovarian cancer stem cells; assay: Focal adhesion signaling pathway by Western blotting, patient-derived ovarian cancer stem cells; assay type: cell-based; conditions: aptamer 1 hour, FIG. 39
Excerpt: as §1
The patient-derived ovarian cancer stem cells were reacted with the CD166 aptamers AT-3 and AT-5 for 1 hour, respectively, and then the focal adhesion signaling pathway was confirmed in CD166 expression-inhibited cells through Western blotting. The Western blotting was performed in the same manner as in Example 5.

Molecule | affinity [1] | cell adhesion [2] | interaction with patient-derived ovarian cancer stem cells, signal intensity [3] | specificity of binding to ovarian cancer stem cells among the CD166 aptamers ([1]; 500 nM, FACS, FIG. 19) | tumor formation ([4]; cells pre-reacted with aptamer 1 hour, 1×10^5 cells subcutaneous, nude mice, FIG. 26) | size of the tumor ([4]; vs aptamer untreated group, day 18 to 38, FIG. 27) | weight of the tumor ([4]; vs control, day 38, FIG. 28) | expression of p-PAXILLIN [5] | expression of p-SRC [5] | expression of the p-FAK Y925 site [5] | expression of p-PAXILLIN [6] | expression of p-SRC [6] | expression of the p-FAK Y925 site [6]
B1 | high affinity | reduced | – | – | – | – | – | – | – | – | – | – | –
B2 | high affinity | reduced | the signal intensity is high | most specifically binds | inhibited | smaller | reduced significantly | not affected | not affected | not affected | inhibited | inhibited | reduced
